Results: publication PMC3554631, “Structural Basis of a Histone H3 Lysine 4 Demethylase Required for Stem Elongation in Rice” (PLoS Genetics, 2013)
Where no end group is shown, it is not given here. Me3 = trimethyl

Experiments:
[1] = target: T1, FA-J3NCZ, FLAG:HA-tagged JmjN-JmjC-zinc finger region of JMJ703 (amino acids 113 to 700) (rice, UniProt Q53WJ1 113-700); experiment: SPR; J3NCZ (FA-J3NCZ) with different concentrations of peptide; set-up for this protein not told in the methods; settings: both partners purified
T1 construct: JMJ703, rice; JmjN-JmjC-zinc finger region between amino acids 113 and 700; the only production of J3NCZ that the methods tell is the FLAG:HA-tagged one from tobacco cells (vector pFA121); source: tobacco leaf cells (Agrobacterium infection), purified with Anti-FLAG M2 magnetic beads
T1 sequence (looked up): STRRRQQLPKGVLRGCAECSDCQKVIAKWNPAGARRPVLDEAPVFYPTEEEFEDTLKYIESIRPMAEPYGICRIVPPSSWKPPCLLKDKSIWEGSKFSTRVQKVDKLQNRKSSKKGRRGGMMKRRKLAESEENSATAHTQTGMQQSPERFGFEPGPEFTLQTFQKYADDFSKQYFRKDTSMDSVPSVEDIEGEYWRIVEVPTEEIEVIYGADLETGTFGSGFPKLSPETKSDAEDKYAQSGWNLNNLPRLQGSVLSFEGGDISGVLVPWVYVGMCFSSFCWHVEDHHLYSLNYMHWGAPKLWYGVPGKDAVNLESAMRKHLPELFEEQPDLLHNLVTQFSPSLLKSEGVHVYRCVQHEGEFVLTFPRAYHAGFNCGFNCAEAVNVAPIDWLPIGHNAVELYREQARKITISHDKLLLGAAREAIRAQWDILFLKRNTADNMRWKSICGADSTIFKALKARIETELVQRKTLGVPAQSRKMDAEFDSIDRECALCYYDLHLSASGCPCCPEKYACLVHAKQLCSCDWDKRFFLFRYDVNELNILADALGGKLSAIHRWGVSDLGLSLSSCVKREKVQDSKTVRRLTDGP

[2] = target: T2, c-JMJ703, catalytic core domain of JMJ703 (amino acids 139 to 498) (rice, UniProt Q53WJ1 139-498); experiment: SPR; BIAcore 3000, 25°C; c-JMJ703 amine-coupled to a CM5 chip; peptides injected at various concentrations at 10 µL/min for 2 min in 10 mM HEPES pH 7.5, 150 mM NaCl, 0.005% Tween20; reference flow cell subtracted; settings: both partners purified
T2 construct: JMJ703, rice JmjC domain-containing histone H3K4 demethylase; amino acids 139 to 498, covering the JmjN domain (A139-K199), long beta-hairpin (D200-T271), mixed domain (L272-V377) and JmjC domain (L378-A498); Cloned into pET-28a with BamHI and XhoI; also called J3NC; catalytic core of JMJ703; source: E. coli Rosetta (DE3), purified (Ni-NTA, thrombin cleavage, Hitrap Q anion exchange)

**Q.** Which results are given for ARTK(Me3)QTARKS [H3K4me3 peptide (ARTKme3QTARKS)]?
**A.** Kd [1]: 15.9 µM; Kd [2]: 30.1 µM
